In the supplement of paper PMC9112550, “Optimization of the antimicrobial peptide Bac7 by deep mutational scanning” (BMC Biology, 2022):

test system: Escherichia coli TOP10; experiment: shrunken log2 fold change of peptide-encoding DNA abundance (4.5 h post-induction vs induction); higher = less antimicrobial activity (less host growth inhibition); conditions: time post-induction: 4.5 h; library: site-saturation at positions 5, 18, 19, 20
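Further: peptides expressed intracellularly from a pBAD plasmid library in pooled LB shake-flask culture, induced with 0.3% L-arabinose, DNA abundance read by NGS, three biological replicates, DESeq2 with apeglm shrinkage.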

| Sequence | shrunken log2 fold change |
| --- | --- |
| RRIRNRPPRLPRPRPRPYNYPRP | -0.067 |
| RRIRFRPPRLPRPRPRPHSLPRP | -0.169 |
| RRIRDRPPRLPRPRPRPGFNPRP | 0.125 |
| RRIRSRPPRLPRPRPRPWWLPRP | 0.0261 |
| RRIRYRPPRLPRPRPRPIKNPRP | -0.275 |
| RRIRSRPPRLPRPRPRPKSWPRP | 0.392 |
| RRIRSRPPRLPRPRPRPNHEPRP | -0.175 |
| RRIRYRPPRLPRPRPRPNGTPRP | -0.424 |
| RRIRCRPPRLPRPRPRPYQLPRP | -0.119 |
| RRIRFRPPRLPRPRPRPPCSPRP | 0.0952 |
| RRIRGRPPRLPRPRPRPNLRPRP | 0.283 |
| RRIRVRPPRLPRPRPRPQISPRP | -0.0989 |
| RRIRHRPPRLPRPRPRPVSMPRP | -0.0784 |
| RRIRVRPPRLPRPRPRPKFAPRP | 0.0713 |
| RRIRKRPPRLPRPRPRPKKVPRP | -0.0126 |
| RRIRARPPRLPRPRPRPTPYPRP | -0.0244 |
| RRIRVRPPRLPRPRPRPTSNPRP | -0.296 |
| RRIRNRPPRLPRPRPRPMKNPRP | -0.238 |
| RRIRARPPRLPRPRPRPWIIPRP | -0.0127 |
| RRIRARPPRLPRPRPRPTIHPRP | -0.0543 |
| RRIRLRPPRLPRPRPRPYQLPRP | -0.253 |
| RRIRCRPPRLPRPRPRPDFMPRP | -0.163 |
| RRIRGRPPRLPRPRPRPHHHPRP | -0.139 |
| RRIRCRPPRLPRPRPRPKYNPRP | -0.696 |
| RRIRTRPPRLPRPRPRPKTSPRP | -0.0907 |

| Sequence | shrunken log2 fold change |
| --- | --- |
| RRIRFRPPRLPRPRPRPWKMPRP | -0.211 |
| RRIRLRPPRLPRPRPRPRRAPRP | 0.585 |
| RRIRQRPPRLPRPRPRPVFNPRP | -0.291 |
| RRIRHRPPRLPRPRPRPHWPPRP | -0.25 |
| RRIRKRPPRLPRPRPRPGHKPRP | 0.193 |
| RRIRSRPPRLPRPRPRPYIKPRP | -0.234 |
| RRIRMRPPRLPRPRPRPWWIPRP | -0.442 |
| RRIRLRPPRLPRPRPRPVMMPRP | -0.288 |
| RRIRHRPPRLPRPRPRPWIWPRP | -0.0845 |
| RRIRNRPPRLPRPRPRPAHMPRP | -0.167 |
| RRIRWRPPRLPRPRPRPAQGPRP | 0.27 |
| RRIRDRPPRLPRPRPRPSWYPRP | 0.0397 |
| RRIRERPPRLPRPRPRPYIIPRP | -0.837 |
| RRIRQRPPRLPRPRPRPPKRPRP | 0.487 |
| RRIRGRPPRLPRPRPRPIVPPRP | 0.02 |
| RRIRFRPPRLPRPRPRPEYDPRP | 0.0271 |
| RRIRTRPPRLPRPRPRPRWEPRP | 0.0443 |
| RRIRGRPPRLPRPRPRPEYLPRP | 0.468 |
| RRIRIRPPRLPRPRPRPHVIPRP | -0.0939 |
| RRIRCRPPRLPRPRPRPSFRPRP | -0.439 |
| RRIRRRPPRLPRPRPRPAHRPRP | -0.059 |
| RRIRKRPPRLPRPRPRPDAPPRP | 1.46 |
| RRIRLRPPRLPRPRPRPLGYPRP | -1.79 |
| RRIRLRPPRLPRPRPRPNSFPRP | -0.191 |
| RRIRSRPPRLPRPRPRPRYKPRP | -0.154 |

| Sequence | shrunken log2 fold change |
| --- | --- |
| RRIRPRPPRLPRPRPRPAFEPRP | 0.139 |
| RRIRRRPPRLPRPRPRPMHGPRP | 0.144 |
| RRIRDRPPRLPRPRPRPTWLPRP | 0.909 |
| RRIRCRPPRLPRPRPRPYKWPRP | -0.636 |
| RRIRHRPPRLPRPRPRPVDTPRP | -0.508 |
| RRIRRRPPRLPRPRPRPEWGPRP | 0.0686 |
| RRIRFRPPRLPRPRPRPTDTPRP | -0.263 |
| RRIRQRPPRLPRPRPRPHWFPRP | 0.0358 |
| RRIRHRPPRLPRPRPRPSCCPRP | -0.343 |
| RRIRLRPPRLPRPRPRPQISPRP | -0.272 |
| RRIRKRPPRLPRPRPRPLQGPRP | 0.154 |
| RRIRFRPPRLPRPRPRPTYRPRP | -8.67e-05 |
| RRIRVRPPRLPRPRPRPMDKPRP | -0.278 |
| RRIRDRPPRLPRPRPRPWMCPRP | -0.0722 |
| RRIRARPPRLPRPRPRPYSKPRP | -0.91 |
| RRIRFRPPRLPRPRPRPVALPRP | -0.128 |
| RRIRNRPPRLPRPRPRPGVRPRP | 0.212 |
| RRIRNRPPRLPRPRPRPSEFPRP | -0.109 |
| RRIRIRPPRLPRPRPRPSYAPRP | -0.0605 |
| RRIRFRPPRLPRPRPRPFKFPRP | -0.107 |
| RRIRSRPPRLPRPRPRPQVYPRP | -0.276 |
| RRIRFRPPRLPRPRPRPVTDPRP | 0.00378 |
| RRIRPRPPRLPRPRPRPLQQPRP | 0.176 |
| RRIRMRPPRLPRPRPRPQMRPRP | 1 |
| RRIRYRPPRLPRPRPRPWICPRP | -0.593 |

| Sequence | shrunken log2 fold change |
| --- | --- |
| RRIRDRPPRLPRPRPRPKDQPRP | -0.111 |
| RRIRMRPPRLPRPRPRPQEVPRP | 0.126 |
| RRIRYRPPRLPRPRPRPDGVPRP | -0.0741 |
| RRIRDRPPRLPRPRPRPDLLPRP | 0.106 |
| RRIRVRPPRLPRPRPRPYLIPRP | 0.0388 |
| RRIRDRPPRLPRPRPRPPNSPRP | -0.0992 |
| RRIRVRPPRLPRPRPRPYGTPRP | -0.13 |
| RRIRERPPRLPRPRPRPWIEPRP | -0.206 |
| RRIRHRPPRLPRPRPRPTKPPRP | 0.0121 |
| RRIRRRPPRLPRPRPRPIPTPRP | 0.063 |
| RRIRLRPPRLPRPRPRPEPRPRP | 0.74 |
| RRIRYRPPRLPRPRPRPSENPRP | -0.235 |
| RRIRARPPRLPRPRPRPNSAPRP | 0.00853 |
| RRIRSRPPRLPRPRPRPHFTPRP | -0.256 |
| RRIRCRPPRLPRPRPRPWEMPRP | -0.0816 |
| RRIRYRPPRLPRPRPRPFKNPRP | -0.426 |
| RRIRVRPPRLPRPRPRPYCGPRP | -0.502 |
| RRIRLRPPRLPRPRPRPKRYPRP | 0.0464 |
| RRIRARPPRLPRPRPRPQDAPRP | 0.215 |
| RRIRHRPPRLPRPRPRPGNIPRP | -0.227 |
| RRIRWRPPRLPRPRPRPMPHPRP | 0.323 |
| RRIRRRPPRLPRPRPRPHCKPRP | 0.298 |
| RRIRQRPPRLPRPRPRPIPGPRP | -0.309 |
| RRIRYRPPRLPRPRPRPELVPRP | 0.25 |
| RRIRARPPRLPRPRPRPNSHPRP | -0.248 |

| Sequence | shrunken log2 fold change |
| --- | --- |
| RRIRLRPPRLPRPRPRPAIQPRP | 0.987 |
| RRIRMRPPRLPRPRPRPTESPRP | 0.0389 |
| RRIRLRPPRLPRPRPRPLTFPRP | -0.633 |
| RRIRLRPPRLPRPRPRPTKVPRP | -0.0842 |
| RRIRDRPPRLPRPRPRPHFFPRP | 0.152 |
| RRIRKRPPRLPRPRPRPNYIPRP | -0.0745 |
| RRIRDRPPRLPRPRPRPPEHPRP | -0.0245 |
| RRIRPRPPRLPRPRPRPDANPRP | 0.172 |
| RRIRHRPPRLPRPRPRPADFPRP | 0.116 |
| RRIRARPPRLPRPRPRPSNDPRP | -0.213 |
| RRIRYRPPRLPRPRPRPCMLPRP | -1.02 |
| RRIRDRPPRLPRPRPRPMMPPRP | -0.00348 |
| RRIRDRPPRLPRPRPRPLIVPRP | 0.173 |
| RRIRRRPPRLPRPRPRPFNWPRP | 0.0111 |
| RRIRYRPPRLPRPRPRPGCMPRP | -0.546 |
| RRIRWRPPRLPRPRPRPLMAPRP | 0.247 |
| RRIRHRPPRLPRPRPRPLWFPRP | -0.00823 |
| RRIRVRPPRLPRPRPRPFRKPRP | -0.0712 |
| RRIRCRPPRLPRPRPRPWRHPRP | -0.126 |
| RRIRRRPPRLPRPRPRPHRMPRP | -0.203 |
| RRIRNRPPRLPRPRPRPPCMPRP | -0.0283 |
| RRIRFRPPRLPRPRPRPTYYPRP | -0.421 |
| RRIRKRPPRLPRPRPRPHQHPRP | 0.213 |
| RRIRMRPPRLPRPRPRPCKVPRP | -0.0465 |
| RRIRFRPPRLPRPRPRPMKHPRP | -0.149 |
